From the supplement of paper PMC9170038

System: MS2 coat protein
Experiment: apparent KD of MS2 coat protein, switch OFF state (with FMN for OFF switches, without FMN for ON switches); designed switch direction (-1 OFF switch, 1 ON switch): -1; higher = weaker reporter binding
Conditions: FMN input: 0 or 200 uM; Eterna round: R93 (includes R88 designs)
Summary of the method: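 Designed RNA switches were made by on-chip transcription from Illumina sequencing clusters and then titrated with SNAP-549-labelled MS2 coat protein. Twofold steps ran from 0.7 or 1.5 nM to 3 µM, each lasting 0.8–1.5 h early and 10–20 min late, in 100 mM Tris-HCl pH 7.5, 80 mM KCl, 4 mM MgCl2, without or with constant ligand. Apparent KD is the per-design median of normalised cluster binding-curve fits.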

| Sequence | apparent KD of MS2 coat protein |
| --- | --- |
| AACAGUACAGGAUAUACAUGAGGAUCACCCAUGUGAGCAUUAAAAGGCGUACCUAAAAGUAGAAGGGUACUGGA [JL Maslow Revisted mod 22] | 66.7 nM |
| AAAAGGUGAGGAUAUUCGAAAAUAAAAGAAAAUAAAAGAAAGAAGAAGGCACAUGAGGAUCACCCAUGUAAUAA [LROPPY Exclusion 4 - v02_deltaG=2.94 break up the As mixed] | 27 nM |
| AAUAACCGAGGAUAUACAAAACCUGUGAUCUAGUGGAUUUUACAUGAGGAUCACCCAUGUAGAAGGCGGACAAG [Atdiiste] | 183 nM |
| AAAUAGUUAGGAUAUACAUGAGGAUCACCCAUGUGGACUUAUGGAGAAUAAUUUAAUGGUAGAAGGGACUAAAA [EX2 Malc#26] | 45.5 nM |
| GAAAAACAUGAGGAUCACCCAUGUCAGGAUAUCGAAAAAAAUAAAAAAGAAAAGAAAACGAGAAGGGACAAAAG [Mat - Same state - Mayanna Mod - D112] | 47.1 nM |
| AAAAAGGCAGGAUAUACGAACAUGUCGAAAGACGUGAAGGGACAUGAGGAUCACCCAUGUAGAAGGGUCAAGAA [Mat - Exclusion 2 - JL mod - D76] | 91.9 nM |
| AAAAAAGGAGGAUAUACGUACAUGUCAAAAGACGUGAAGGGACAUGAGGAUCACCCAUGUAGAAGGCUUAAAAA [JL Stem Breaker 6] | 18.1 nM |
| AUAAUCCUAGGAUAUACAUGGAUAUACAUUCAUGUGGACCUACAUGAGGAUCACCCAUGUAGAAGGAGGAUGAA [Mat - Same state - Mayanna Mod - D138] | 39.5 nM |
| GAAAAGGAAGGAUAUACAAAGGGACCUUAUAAAAGAAGAAGACAUGAGGAUCACCCAUGUAGAAGGUCCAGAUA [Diusanatra] | 19.6 nM |
| AGCUAGUCAGGAUAUACGAACAAGACAAAAGACGAGAACGGACAUGAGGAUCACCCAUGUAGAAGGGACUAGCA [Diamond 8] | 28.8 nM |
| AAAAAGGCAGGAUAUACAUGAGGAUCACCCAUGUAAAGAAAGAAAGAGGUGAAAGAAAGUAGAAGGGCCAAAAA [Ex3 sub 2] | 72 nM |
| AAAACUGGAGGAUAUACAUGAGGAUCACCCAUGUGUGGGUAGACUGUGUCGGCGUCAGGUAGAAGGCCACAAAA [Gilly Gone Silly 31 - Jieux - Exclusion 3] | 167 nM |
| AUAAACAGAGGAUAUACGCGGAUUAUUGAAAUUAUUGAUUCACAUGAGGAUCACCCAUGUAGAAGGCUGGAAAA [LROPPY Exclusion 2 - v04_doubled Us] | 124 nM |
| AAGUUGUCAGGAUAUGCUUGUCGUCACAAAAGUGAUGACGAGCAGAAGGGACAUGAGGAUCACCCAUGUAAAGA [JL eternac mod 2] | 117 nM |
| UCCACACAUGAGGAUCACCCAUGUGAGGAUAUCUAGAAAACCUCAUGUAAAAAAAUCUAGAGAAGGCAUAUGAA [Design 91: Pseudoknot A] | 18.6 nM |
| GCUGUCCUAGGAUAUACAUGAGGAUCACCCAUGUGAGAGAAAAAAGUGAGAAAGAAAAGUAGAAGGAGGGUAGG [salish99-ex3-104] | 44.4 nM |
| AAAAAGGCAGGAUAUACGUACAUGUCGAAAGACGUGAAGGGACAUGAGGAUCACCCAUGUAGAAGGGUCAAGAA [Mat - Exclusion 2 - JL mod - D77] | 93.4 nM |
| AACAGUACAGGAUAUACAUGAGGAUCACCCAUGUGAGCAUUAAAAGGCGUACCUCAAAGUAGAAGGGUACUGGA [JL Maslow Revisted mod 23] | 18.9 nM |
| AAACGUAGAGGAUAUACAAAAAGAUUACGAAAGUAAUCGGGACAUGAGGAUCACCCAUGUAGAAGGCUACGAAA [Mod2 of Meechl 64% 2] | 94.5 nM |
| GAAAAACAUGAGGAUCACCCAUGUAAGGAUAUGCUAAAAAACGCAAAAAAAGCGAAUAGCAGAAGGUACAAAAG [Mat - Exclusion 1 - Eli mod - D82] | 78.1 nM |
| CUCAAGUGAGGAUAUCAGUAGUAAAAAAAUAAAAUUACUACUGAGAAGGCACAUGAGGAUCACCCAUGUGCCAA [EX4 335: Super Stable 35] | 15.2 nM |
| AAAAAACAUGAGGAUCACCCAUGUGAGGAUAUCGGUAGUGAGGCCAUAGUGUCAGUAAUGAGAAGGCACAUAAA [Brourd 613 Mod 10 - Jieux - Exclusion 1] | 22.7 nM |

| Sequence | apparent KD of MS2 coat protein |
| --- | --- |
| GAAAAACAUGAGGAUCACCCAUGUCAGGAUAUACAAAAUAAAAUAAAAAUAAAAUAAAGUAGAAGGGACAAAAG [Mat - Same state - Mayanna Mod - D107] | 49 nM |
| GUGAAGGAAGGAUAUACAAAGGGACGUUAUAAGAGAAGAAGACAUGAGGAUCACCCAUGUAGAAGGUCCAGAUC [Beorteesri] | 43.5 nM |
| UAUAGACAUGAGGAUCACCCAUGUGAGGAUAUCAGUAACUACAAAACAUCACAUACAAUGAGAAGGCACAGAAA [JR_Exc001_Sub014] | 49.8 nM |
| AAAAAGUGAGGAUAUGUCAAAGGUCACGAAAGUGACAAAGGACAGAAGGCACAUGAGGAUCACCCAUGUGAAAA [Fiskers Exclusion 4D1 65% - Early + late G segment 2] | 32.3 nM |
| AUAAACGGAGGAUAUACAUGAGGAUCACCCAUGUAAAUAAAUAGGAGAGCCACAAUAAGUAGAAGGUCGAAUAA [JR_Exc003_Sub010] | 32.4 nM |
| AUAGUACAUGAGGAUCACCCAUGUCAGGAUAUUGGAUAUGACAUAAAAAAAAUGUUAACGAGAAGGGACUAUAA [EX1 Malc#16] | 27.7 nM |
| AACUAACAUGAGGAUCACCCAUGUCAGGAUAUGCAAAGAUCGAUCGAACGAUCGAUAAGCAGAAGGGACAAAAA [Amethyst 95] | 36.9 nM |
| AUAUAACAUGAGGAUCACCCAUGUCAGGAUAUCGAACCCAACACAACCAAAAUGUCGGCGAGAAGGGACAAAAA [Default title] | 22.6 nM |
| CUCUAGUUAGGAUAUGCAAGAAAAGAAGAGAAAGAAAAGAAGCAGAAGGAACAUGAGGAUCACCCAUGUAAGAA [EteRNA is fun!] | 20.4 nM |
| AAAACGCUAGGAUAUACGAAAAAAAAGGGAGAAAAAAAGGGACAUGAGGAUCACCCAUGUAGAAGGAGCAAAAA [Diamond 88] | 105 nM |
| CUCUUGUGAGGAUAUCCAAGAAAAGAAAAGAAAGAAAAGAAGGAGAAGGCACAUGAGGAUCACCCAUGUAAGAA [EteRNA is fun!] | 38.9 nM |
| AAGAAGGUAGGAUAUACUAGGGCAACUAAUGCAAAGAUAGGACAUGAGGAUCACCCAUGUAGAAGGGCCAGAAA [JR_Exc002_Sub403] | 59.6 nM |
| AAAAAGUGAGGAUAUUCGGAUAGGAAAACGAAAACCUAUCCGAAGAAGGCACAUGAGGAUCACCCAUGUGGAAG [Mat - Exaclusion 4 - Eli mod - D47] | 48.3 nM |
| GGAAAGUAAGGAUAUGCGAACAAACAAACAAACAAAAGGGAACAUGAGGAUCACCCAUGUAGAAGGUGCAAACA [Exclusion 2 Three redone] | 32.6 nM |
| AACAGGUCAGGAUAUGUGGAAAAAAUAAAAAAAAAUAAAACACAGAAGGGACAUGAGGAUCACCCAUGUAAACA [Mat - Exclusion 4 - Mayanna - D143] | 56.8 nM |
| AAGAAUCGAGGAUAUACAAGAAAGAAAGAAAAGAAAAGAAAACAUGAGGAUCACCCAUGUAGAAGGCGAUAGAA [EteRNA is fun!] | 24.6 nM |
| AGUUGGCGAGGAUAUACAUGAGGAUCACCCAUGUGAGAGAAAAAAGUGAAAAAGAAAAGUAGAAGGCGCUGACA [73%, Moding Norbert Elias, 3] | 195 nM |
| AAAGCGGCAGGAUAUACAGGAACAAAAGUAUGUGCAUCCGCACAUGAGGAUCACCCAUGUAGAAGGGCUAAUAA [Ontiti] | 270 nM |
| AAGAAGUGAGGAUAUCGAAGACUGUCGAAAAGACAGUCGAACGAGAAGGCACAUGAGGAUCACCCAUGUGGGAG [Mat - Exaclusion 4 - Eli mod - D71] | 176 nM |
| GUAAACCUAGGAUAUACAUGAGGAUCACCCAUGUAAAAAUUAAUAAAAAGAAAAACAAGUAGAAGGAGGUAGAU [JR_Exc003_Sub1225] | 20.8 nM |
| AGCAAGUAAGGAUAUGCGAAGUCAGGACACACACUGACAAAGCAGAAGGUACAUGAGGAUCACCCAUGUAAGCA [Mat - Exaclusion 4 - Eli mod - D62] | 14.9 nM |
